{"source": "the supplement of paper PMC11780869", "tested_on": "Bacillus subtilis", "test": "cleaved RNA product abundance (RNA/gDNA barcode ratio) relative to median wild-type variant (ratio to wild type); higher = more accumulation of the downstream cleavage product", "conditions": "cleavage site: cggR-gapA (positions -7 to +36 mutated)", "how_it_was_run": "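B. subtilis strains with chromosomally integrated reporter mRNAs (truncated aprE or tetM) holding barcoded, mutagenized RNase Y cleavage-site windows grew in LB at 37°C from OD600 0.0003 to 0.3. Cleaved product abundance is each construct's RNA:gDNA barcode ratio, scaled to the median construct with the unmutated site. It came from sequencing barcodes of gel-selected, reverse-transcribed cleaved RNA and of genomic DNA.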", "key": {"[1]": {"conditions": "experiment (reporter, strain, medium): exp 2b: truncated aprE reporter, strain BJT200"}, "[2]": {"conditions": "experiment (reporter, strain, medium): exp 4a: truncated aprE reporter, strain BJT201 with 2% xylose (RNase J1 expressed)"}}, "data": [{"sequence": "ACAGACGAAGGAGCCGCAAAGAAGTTATTAAGGCATGAATTATCCCTCAATATAAATATCTCTCACTTATTTAAA", "values": [{"measurement": "cleaved RNA product abundance", "setting": "[1]", "value": 0.0689}, {"measurement": "cleaved RNA product abundance", "setting": "[2]", "value": 0.132}]}, {"sequence": "ACAGACGAAGGAGCCGCAAAGAAGTTATTAAGGCATGACTAATCCCTCAATATAAATATCTCTCACTTATTTAAA", "values": [{"measurement": "cleaved RNA product abundance", "setting": "[1]", "value": 0.101}, {"measurement": "cleaved RNA product abundance", "setting": "[2]", "value": 0.102}]}, {"sequence": "ACAGACGAAGGAGCCGCAAAGAAGTTATTAAGGCATGATTAATCCCTCAATATAAATATCTCTCACTTATTTAAA", "values": [{"measurement": "cleaved RNA product abundance", "setting": "[1]", "value": 0.125}, {"measurement": "cleaved RNA product abundance", "setting": "[2]", "value": 0.15}]}, {"sequence": "ACAGACGAAGGAGCCGCAAAGAAGTTATTAAGGCATTAATAATCCCTCAATATAAATATCTCTCACTTATTTAAA", "values": [{"measurement": "cleaved RNA product abundance", "setting": "[1]", "value": 0.0847}, {"measurement": "cleaved RNA product abundance", "setting": "[2]", "value": 0.108}]}, {"sequence": "ACAGACGAAGGAGCCGCAAAGAAGTTATTAAGGCGTGAATAATCCCTCAATATAAATATCTCTCACTTATTTAAA", "values": [{"measurement": "cleaved RNA product abundance", "setting": "[1]", "value": 0.097}, {"measurement": "cleaved RNA product abundance", "setting": "[2]", "value": 0.116}]}, {"sequence": "ACAGACGAAGGAGCCGCAAAGAAGTTATTAAGGCTTGAATAATCCCTCAATATAAATATCTCTCACTTATTTAAA", "values": [{"measurement": "cleaved RNA product abundance", "setting": "[1]", "value": 0.115}, {"measurement": "cleaved RNA product abundance", "setting": "[2]", "value": 0.11}]}, {"sequence": "ACAGACGAAGGAGCCGCAAAGAAGTTATTAAGGGAAAAATAATCCCTCAATATAAATATCTCTCACTTATTTAAA", "values": [{"measurement": "cleaved RNA product abundance", "setting": "[2]", "value": 0.771}]}, {"sequence": "ACAGACGAAGGAGCCGCAAAGAAGTTATTAAGGGAACAATAATCCCTCAATATAAATATCTCTCACTTATTTAAA", "values": [{"measurement": "cleaved RNA product abundance", "setting": "[2]", "value": 0.79}]}, {"sequence": "ACAGACGAAGGAGCCGCAAAGAAGTTATTAAGGGAAGAAAAATCCCTCAATATAAATATCTCTCACTTATTTAAA", "values": [{"measurement": "cleaved RNA product abundance", "setting": "[1]", "value": 0.684}, {"measurement": "cleaved RNA product abundance", "setting": "[2]", "value": 0.436}]}, {"sequence": "ACAGACGAAGGAGCCGCAAAGAAGTTATTAAGGGAAGAACAATCCCTCAATATAAATATCTCTCACTTATTTAAA", "values": [{"measurement": "cleaved RNA product abundance", "setting": "[2]", "value": 0.73}]}, {"sequence": "ACAGACGAAGGAGCCGCAAAGAAGTTATTAAGGGAAGAATAAACCCTCAATATAAATATCTCTCACTTATTTAAA", "values": [{"measurement": "cleaved RNA product abundance", "setting": "[1]", "value": 0.301}, {"measurement": "cleaved RNA product abundance", "setting": "[2]", "value": 0.27}]}, {"sequence": "ACAGACGAAGGAGCCGCAAAGAAGTTATTAAGGGAAGAATAACCCCTCAATATAAATATCTCTCACTTATTTAAA", "values": [{"measurement": "cleaved RNA product abundance", "setting": "[1]", "value": 0.283}, {"measurement": "cleaved RNA product abundance", "setting": "[2]", "value": 0.369}]}, {"sequence": "ACAGACGAAGGAGCCGCAAAGAAGTTATTAAGGGAAGAATAAGCCCTCAATATAAATATCTCTCACTTATTTAAA", "values": [{"measurement": "cleaved RNA product abundance", "setting": "[1]", "value": 0.433}, {"measurement": "cleaved RNA product abundance", "setting": "[2]", "value": 0.823}]}, {"sequence": "ACAGACGAAGGAGCCGCAAAGAAGTTATTAAGGGAAGAATAATACCTCAATATAAATATCTCTCACTTATTTAAA", "values": [{"measurement": "cleaved RNA product abundance", "setting": "[1]", "value": 0.101}, {"measurement": "cleaved RNA product abundance", "setting": "[2]", "value": 0.156}]}, {"sequence": "ACAGACGAAGGAGCCGCAAAGAAGTTATTAAGGGAAGAATAATCACTCAATATAAATATCTCTCACTTATTTAAA", "values": [{"measurement": "cleaved RNA product abundance", "setting": "[1]", "value": 0.109}, {"measurement": "cleaved RNA product abundance", "setting": "[2]", "value": 0.104}]}, {"sequence": "ACAGACGAAGGAGCCGCAAAGAAGTTATTAAGGGAAGAATAATCCATCAATATAAATATCTCTCACTTATTTAAA", "values": [{"measurement": "cleaved RNA product abundance", "setting": "[1]", "value": 0.114}, {"measurement": "cleaved RNA product abundance", "setting": "[2]", "value": 0.105}]}, {"sequence": "ACAGACGAAGGAGCCGCAAAGAAGTTATTAAGGGAAGAATAATCCCACAATATAAAAATCTCTCACTTATTTAAA", "values": [{"measurement": "cleaved RNA product abundance", "setting": "[2]", "value": 0.118}]}, {"sequence": "ACAGACGAAGGAGCCGCAAAGAAGTTATTAAGGGAAGAATAATCCCTAAATATAAAAATCTCTCACTTATTTAAA", "values": [{"measurement": "cleaved RNA product abundance", "setting": "[2]", "value": 0.415}]}, {"sequence": "ACAGACGAAGGAGCCGCAAAGAAGTTATTAAGGGAAGAATAATCCCTAAATATAAATATCTCTCACTTATTTAAA", "values": [{"measurement": "cleaved RNA product abundance", "setting": "[2]", "value": 0.326}]}, {"sequence": "ACAGACGAAGGAGCCGCAAAGAAGTTATTAAGGGAAGAATAATCCCTCAAAATAAATATCTCTCACTTATTTAAA", "values": [{"measurement": "cleaved RNA product abundance", "setting": "[1]", "value": 0.17}, {"measurement": "cleaved RNA product abundance", "setting": "[2]", "value": 0.182}]}, {"sequence": "ACAGACGAAGGAGCCGCAAAGAAGTTATTAAGGGAAGAATAATCCCTCAACATAAATATCTCTCACTTATTTAAA", "values": [{"measurement": "cleaved RNA product abundance", "setting": "[1]", "value": 0.133}, {"measurement": "cleaved RNA product abundance", "setting": "[2]", "value": 0.257}]}, {"sequence": "ACAGACGAAGGAGCCGCAAAGAAGTTATTAAGGGAAGAATAATCCCTCAATATAAAAATCTCTCACTTATTTAAA", "values": [{"measurement": "cleaved RNA product abundance", "setting": "[2]", "value": 0.563}]}, {"sequence": "ACAGACGAAGGAGCCGCAAAGAAGTTATTAAGGGAAGAATAATCCCTCAATATAAAGATCTCTCACTTATTTAAA", "values": [{"measurement": "cleaved RNA product abundance", "setting": "[2]", "value": 0.495}]}, {"sequence": "ACAGACGAAGGAGCCGCAAAGAAGTTATTAAGGGAAGAATAATCCCTCAATATAAATAACTCTCACTTATTTAAA", "values": [{"measurement": "cleaved RNA product abundance", "setting": "[2]", "value": 0.434}]}, {"sequence": "ACAGACGAAGGAGCCGCAAAGAAGTTATTAAGGGAAGAATAATCCCTCAATATAAATATCTCTCACTTATTTAAA", "values": [{"measurement": "cleaved RNA product abundance", "setting": "[1]", "value": 0.485}, {"measurement": "cleaved RNA product abundance", "setting": "[2]", "value": 0.633}, {"measurement": "cleaved RNA product abundance", "setting": "experiment (reporter, strain, medium): exp 6: tetM reporter, strain 168", "value": 0.691}]}, {"sequence": "ACAGACGAAGGAGCCGCAAAGAAGTTATTAAGGGAAGAATAATCCCTCAATATAAATTTCTCTCACTTATTTAAA", "values": [{"measurement": "cleaved RNA product abundance", "setting": "[1]", "value": 0.471}]}, {"sequence": "ACAGACGAAGGAGCCGCAAAGAAGTTATTAAGGGAAGAATAATCCCTCAATATAATTATCTCTCACTTATTTAAA", "values": [{"measurement": "cleaved RNA product abundance", "setting": "[1]", "value": 0.292}, {"measurement": "cleaved RNA product abundance", "setting": "[2]", "value": 0.314}]}, {"sequence": "ACAGACGAAGGAGCCGCAAAGAAGTTATTAAGGGAAGAATAATCCCTCAATATATATATCTCTCACTTATTTAAA", "values": [{"measurement": "cleaved RNA product abundance", "setting": "[1]", "value": 0.393}, {"measurement": "cleaved RNA product abundance", "setting": "[2]", "value": 0.563}]}, {"sequence": "ACAGACGAAGGAGCCGCAAAGAAGTTATTAAGGGAAGAATAATCCCTCAATATGAATATCTCTCACTTATTTAAA", "values": [{"measurement": "cleaved RNA product abundance", "setting": "[2]", "value": 0.0705}]}, {"sequence": "ACAGACGAAGGAGCCGCAAAGAAGTTATTAAGGGAAGAATAATCCCTCACTATAAATATCTCTCACTTATTTAAA", "values": [{"measurement": "cleaved RNA product abundance", "setting": "[1]", "value": 0.187}]}, {"sequence": "ACAGACGAAGGAGCCGCAAAGAAGTTATTAAGGGAAGAATAATCCCTCAGTATAAATATCTCTCACTTATTTAAA", "values": [{"measurement": "cleaved RNA product abundance", "setting": "[1]", "value": 0.153}, {"measurement": "cleaved RNA product abundance", "setting": "[2]", "value": 0.29}]}, {"sequence": "ACAGACGAAGGAGCCGCAAAGAAGTTATTAAGGGAAGAATAATCCCTCATTATAAATATCTCTCACTTATTTAAA", "values": [{"measurement": "cleaved RNA product abundance", "setting": "[1]", "value": 0.208}, {"measurement": "cleaved RNA product abundance", "setting": "[2]", "value": 0.216}]}, {"sequence": "ACAGACGAAGGAGCCGCAAAGAAGTTATTAAGGGAAGAATAATCCCTCCATATAAATATCTCTCACTTATTTAAA", "values": [{"measurement": "cleaved RNA product abundance", "setting": "[2]", "value": 0.202}]}, {"sequence": "ACAGACGAAGGAGCCGCAAAGAAGTTATTAAGGGAAGAATAATCCCTCGATATAAATATCTCTCACTTATTTAAA", "values": [{"measurement": "cleaved RNA product abundance", "setting": "[2]", "value": 0.521}]}, {"sequence": "ACAGACGAAGGAGCCGCAAAGAAGTTATTAAGGGAAGAATAATCCCTCTATATAAATATCTCTCACTTATTTAAA", "values": [{"measurement": "cleaved RNA product abundance", "setting": "[2]", "value": 0.239}]}, {"sequence": "ACAGACGAAGGAGCCGCAAAGAAGTTATTAAGGGAAGAATAATCCCTGAATATAAATATCTCTCACTTATTTAAA", "values": [{"measurement": "cleaved RNA product abundance", "setting": "[2]", "value": 0.374}]}, {"sequence": "ACAGACGAAGGAGCCGCAAAGAAGTTATTAAGGGAAGAATAATCCCTTAATATAAATATCTCTCACTTATTTAAA", "values": [{"measurement": "cleaved RNA product abundance", "setting": "[1]", "value": 1.05}, {"measurement": "cleaved RNA product abundance", "setting": "[2]", "value": 0.952}]}, {"sequence": "ACAGACGAAGGAGCCGCAAAGAAGTTATTAAGGGAAGAATAATCCGTCAATATAAATATCTCTCACTTATTTAAA", "values": [{"measurement": "cleaved RNA product abundance", "setting": "[1]", "value": 0.0722}]}, {"sequence": "ACAGACGAAGGAGCCGCAAAGAAGTTATTAAGGGAAGAATAATCCTTCAATATAAATATCTCTCACTTATTTAAA", "values": [{"measurement": "cleaved RNA product abundance", "setting": "[1]", "value": 0.13}, {"measurement": "cleaved RNA product abundance", "setting": "[2]", "value": 0.144}]}]}
